Results taken from PMC9482650, “Quantitative fragmentomics allow affinity mapping of interactomes” (Nature Communications, 2022).

T1: GRIP1_3, Q9Y3R0
T1 sequence (Q9Y3R0 247-346, limits assumed, looked up): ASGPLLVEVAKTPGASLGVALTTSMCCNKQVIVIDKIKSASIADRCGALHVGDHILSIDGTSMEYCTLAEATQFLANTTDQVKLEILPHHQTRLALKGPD

T2: LNX2_2, Q8N448
T2 sequence (Q8N448 334-432, limits assumed, looked up): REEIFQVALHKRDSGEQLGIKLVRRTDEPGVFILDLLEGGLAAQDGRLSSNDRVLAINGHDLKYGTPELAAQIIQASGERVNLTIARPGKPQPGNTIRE

T3: SYNJ2BP, P57105
T3 sequence (P57105 8-110, limits assumed, looked up): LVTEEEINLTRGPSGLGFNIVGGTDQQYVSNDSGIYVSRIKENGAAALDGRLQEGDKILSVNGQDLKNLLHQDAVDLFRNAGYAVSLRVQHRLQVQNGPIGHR

T4: RHPN1, Q8TCX5
T4 sequence (Q8TCX5 508-602, limits assumed, looked up): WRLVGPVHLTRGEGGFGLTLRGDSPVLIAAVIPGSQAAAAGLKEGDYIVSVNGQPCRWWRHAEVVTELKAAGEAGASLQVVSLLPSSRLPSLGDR

T5: APBA2_1, Q99767
T5 sequence (Q99767 563-664, limits assumed, looked up): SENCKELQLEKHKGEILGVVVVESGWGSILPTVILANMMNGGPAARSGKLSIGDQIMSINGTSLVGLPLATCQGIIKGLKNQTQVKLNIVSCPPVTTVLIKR

T6: NHERF3_3, Q5T2W1
T6 sequence (Q5T2W1 238-333, limits assumed, looked up): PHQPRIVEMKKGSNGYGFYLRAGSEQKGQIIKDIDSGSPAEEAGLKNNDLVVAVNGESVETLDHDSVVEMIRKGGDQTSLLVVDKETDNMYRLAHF

T7: NHERF3_1, Q5T2W1
T7 sequence (Q5T2W1 4-100, limits assumed, looked up): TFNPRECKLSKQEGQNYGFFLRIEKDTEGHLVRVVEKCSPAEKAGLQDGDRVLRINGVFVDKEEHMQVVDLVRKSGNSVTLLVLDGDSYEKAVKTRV

T8: APBA1_2, Q02410
T8 sequence (Q02410 742-832, limits assumed, looked up): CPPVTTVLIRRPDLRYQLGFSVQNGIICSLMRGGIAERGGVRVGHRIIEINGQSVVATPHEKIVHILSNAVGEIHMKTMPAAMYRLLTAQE

T9: APBA1_1, Q02410
T9 sequence (Q02410 651-752, limits assumed, looked up): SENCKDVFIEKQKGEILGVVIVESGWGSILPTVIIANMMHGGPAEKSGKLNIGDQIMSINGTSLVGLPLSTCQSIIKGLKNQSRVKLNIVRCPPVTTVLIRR

T10: DLG3_2, Q92796
T10 sequence (Q92796 221-321, limits assumed, looked up): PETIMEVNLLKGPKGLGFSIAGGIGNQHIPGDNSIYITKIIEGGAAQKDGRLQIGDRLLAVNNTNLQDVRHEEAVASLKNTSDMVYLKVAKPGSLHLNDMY

T11: GRIP1_5, Q9Y3R0
T11 sequence (Q9Y3R0 568-668, limits assumed, looked up): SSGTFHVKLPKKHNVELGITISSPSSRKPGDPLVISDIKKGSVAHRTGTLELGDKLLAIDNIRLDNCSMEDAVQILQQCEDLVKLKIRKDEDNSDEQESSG

T12: MPP2, Q14168
T12 sequence (Q14168 180-250, limits assumed, looked up): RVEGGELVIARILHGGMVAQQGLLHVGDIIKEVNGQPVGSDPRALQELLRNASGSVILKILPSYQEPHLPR


Tests used:
Experiment in all cases: holdup assay
Set-up in all cases: key: below the threshold = too weak to quantify, mostly under pKd 3.1 to 4
Details in all cases: plain residues with an end cap or a label only (N-terminal biotin on a linker: ado-ado)
[1] = molecular target: T1, GRIP1_3, Q9Y3R0
[2] = molecular target: HTRA1, Q92743
[3] = molecular target: T2, LNX2_2, Q8N448
[4] = molecular target: PICK1, Q9NRD5
[5] = molecular target: DLG2_3, Q15700
[6] = molecular target: IL16_3, Q14005
[7] = molecular target: T3, SYNJ2BP, P57105
[8] = molecular target: T4, RHPN1, Q8TCX5
[9] = molecular target: T5, APBA2_1, Q99767
[10] = molecular target: T6, NHERF3_3, Q5T2W1
[11] = molecular target: NOS1, P29475
[12] = molecular target: Inadl_8, Q8NI35
[13] = molecular target: T7, NHERF3_1, Q5T2W1
[14] = molecular target: T8, APBA1_2, Q02410
[15] = molecular target: DLG4_1, P78352
[16] = molecular target: T9, APBA1_1, Q02410
[17] = molecular target: GRID2IP_2, A4D2P6
[18] = molecular target: T10, DLG3_2, Q92796
[19] = molecular target: T11, GRIP1_5, Q9Y3R0
[20] = molecular target: DLG4_2, P78352
[21] = molecular target: GRIP2_5, Q9C0E4
[22] = molecular target: MAGI1_1, Q96QZ7
[23] = molecular target: PDLIM1, O00151
[24] = molecular target: FRMPD3, Q5JV73
[25] = molecular target: T12, MPP2, Q14168
[26] = molecular target: GRIP2_4, Q9C0E4
Sequence of GRIP2_4, Q9C0E4 (Q9C0E4 446-548): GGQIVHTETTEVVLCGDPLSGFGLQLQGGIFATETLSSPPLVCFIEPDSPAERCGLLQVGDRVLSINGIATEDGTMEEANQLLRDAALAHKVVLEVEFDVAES

Sequence of IL16_3, Q14005 (Q14005 1107-1207): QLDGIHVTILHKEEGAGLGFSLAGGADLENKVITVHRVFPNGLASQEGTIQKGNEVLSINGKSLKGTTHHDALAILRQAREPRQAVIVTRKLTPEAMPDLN
Sequence of NOS1, P29475 (P29475 9-101): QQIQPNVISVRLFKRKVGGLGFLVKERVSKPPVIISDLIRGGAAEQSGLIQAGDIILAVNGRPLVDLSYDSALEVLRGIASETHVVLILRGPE
Sequence of Inadl_8, Q8NI35 (Q8NI35 1425-1530): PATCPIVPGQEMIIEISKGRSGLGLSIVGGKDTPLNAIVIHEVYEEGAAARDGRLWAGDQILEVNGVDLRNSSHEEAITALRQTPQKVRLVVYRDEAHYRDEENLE
Sequence of FRMPD3, Q5JV73 (Q5JV73 12-100): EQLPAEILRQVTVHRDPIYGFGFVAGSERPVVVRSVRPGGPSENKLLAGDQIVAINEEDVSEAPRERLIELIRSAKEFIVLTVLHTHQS
Sequence of MAGI1_1, Q96QZ7 (Q96QZ7 1-106): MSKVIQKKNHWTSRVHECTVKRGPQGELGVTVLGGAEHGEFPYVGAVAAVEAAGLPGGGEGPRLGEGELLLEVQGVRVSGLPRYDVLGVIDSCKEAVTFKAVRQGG
Sequence of GRIP2_5, Q9C0E4 (Q9C0E4 544-642): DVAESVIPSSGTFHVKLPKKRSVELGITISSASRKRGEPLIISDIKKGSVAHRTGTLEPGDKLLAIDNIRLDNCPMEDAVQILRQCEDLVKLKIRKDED
Sequence of PICK1, Q9NRD5 (Q9NRD5 17-115): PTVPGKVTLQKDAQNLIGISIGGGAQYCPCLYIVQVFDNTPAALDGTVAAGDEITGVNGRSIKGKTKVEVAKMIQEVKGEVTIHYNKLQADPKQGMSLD
Sequence of DLG4_1, P78352 (P78352 62-152): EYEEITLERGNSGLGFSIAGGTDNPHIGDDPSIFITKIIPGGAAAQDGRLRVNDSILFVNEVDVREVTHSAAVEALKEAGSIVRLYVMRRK
Sequence of DLG4_2, P78352 (P78352 155-259): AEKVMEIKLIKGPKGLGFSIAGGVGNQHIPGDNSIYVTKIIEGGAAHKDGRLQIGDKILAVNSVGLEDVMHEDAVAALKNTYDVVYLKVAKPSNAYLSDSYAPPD
Sequence of HTRA1, Q92743 (Q92743 360-477): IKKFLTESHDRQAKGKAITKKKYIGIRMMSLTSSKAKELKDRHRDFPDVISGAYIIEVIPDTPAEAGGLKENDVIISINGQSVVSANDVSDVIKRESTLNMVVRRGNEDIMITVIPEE
Sequence of PDLIM1, O00151 (O00151 1-87): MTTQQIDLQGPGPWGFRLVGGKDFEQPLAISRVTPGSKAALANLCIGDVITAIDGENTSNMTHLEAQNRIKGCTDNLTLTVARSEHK
Sequence of GRID2IP_2, A4D2P6 (A4D2P6 272-370): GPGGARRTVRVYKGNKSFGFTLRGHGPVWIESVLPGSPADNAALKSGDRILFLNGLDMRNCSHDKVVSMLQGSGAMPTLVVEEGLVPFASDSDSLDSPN

Binder | pKd [1] | pKd [2] | pKd [3] | pKd [4] | pKd [5] | pKd [6] | pKd [7] | pKd [8] | pKd [9] | pKd [10] | pKd [11] | pKd [12] | pKd [13] | pKd [14] | pKd [15] | pKd [16] | pKd [17] | pKd [18] | pKd [19] | pKd [20] | also measured
DYSNLRETDI [ADRA1D, P25100] | below the threshold | below the threshold | below the threshold | 4.1 | below the threshold | below the threshold | 4.43 | 4.35 | below the threshold | below the threshold | below the threshold | 3.56 | below the threshold | below the threshold | 3.89 | below the threshold | below the threshold | 4.39 | below the threshold | 4.54 | pKd [21]: below the threshold; pKd [22]: below the threshold; pKd [23]: below the threshold; pKd [24]: below the threshold; pKd [25]: below the threshold; pKd [26]: below the threshold
GVHSNDHSVV [LPAR1, Q92633] | below the threshold | 4.3 | 4.26 | below the threshold | below the threshold | below the threshold | 3.7 | 3.78 | below the threshold | below the threshold | below the threshold | 3.62 | below the threshold | 3.63 | below the threshold | below the threshold | 3.96 | 4.42 | below the threshold | 4.01 | pKd [21]: below the threshold; pKd [22]: below the threshold; pKd [23]: below the threshold; pKd [24]: below the threshold; pKd [25]: below the threshold; pKd [26]: below the threshold
WAKEKQHTRL [SLC17A1, Q14916] | below the threshold | below the threshold | below the threshold | below the threshold | below the threshold | below the threshold | below the threshold | 3.97 | below the threshold | 4.28 | 3.71 | below the threshold | 4.73 | below the threshold | 3.82 | below the threshold | 4.25 | below the threshold | below the threshold | 4.04 | pKd [21]: below the threshold; pKd [22]: below the threshold; pKd [23]: below the threshold; pKd [24]: below the threshold; pKd [25]: below the threshold; pKd [26]: below the threshold
SAGADSETHC [SLCO1B1, Q9Y6L6] | below the threshold | 3.51 | below the threshold | below the threshold | below the threshold | below the threshold | below the threshold | 3.49 | below the threshold | below the threshold | below the threshold | below the threshold | 3.68 | below the threshold | below the threshold | below the threshold | below the threshold | below the threshold | below the threshold | below the threshold | pKd [21]: below the threshold; pKd [22]: below the threshold; pKd [23]: below the threshold; pKd [24]: below the threshold; pKd [25]: below the threshold; pKd [26]: below the threshold
